Where no end group is shown, it is not given here.
Biological target: T1, factor XII (FXII) (human, UniProt P00748 20-615)
T1 construct: Endogenous FXII in human plasma in the pulldown; purified FXII in the chromogenic assay; also called FXII zymogen
T1 sequence (looked up): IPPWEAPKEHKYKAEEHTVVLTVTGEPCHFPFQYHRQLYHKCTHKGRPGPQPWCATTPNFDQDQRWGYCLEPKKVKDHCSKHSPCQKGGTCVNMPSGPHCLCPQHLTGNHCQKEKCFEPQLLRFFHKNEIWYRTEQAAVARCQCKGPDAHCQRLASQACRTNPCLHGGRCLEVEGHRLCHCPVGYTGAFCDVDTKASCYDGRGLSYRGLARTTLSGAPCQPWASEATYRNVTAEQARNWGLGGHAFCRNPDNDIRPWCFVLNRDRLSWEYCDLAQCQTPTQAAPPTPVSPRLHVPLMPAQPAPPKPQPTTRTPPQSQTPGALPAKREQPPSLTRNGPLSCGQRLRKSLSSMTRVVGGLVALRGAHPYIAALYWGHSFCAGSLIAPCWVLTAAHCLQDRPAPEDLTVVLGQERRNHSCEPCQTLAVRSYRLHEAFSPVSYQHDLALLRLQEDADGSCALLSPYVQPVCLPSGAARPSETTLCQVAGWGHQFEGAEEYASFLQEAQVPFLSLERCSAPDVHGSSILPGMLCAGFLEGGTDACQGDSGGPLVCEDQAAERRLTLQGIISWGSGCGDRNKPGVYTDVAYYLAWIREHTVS
Experiment: streptavidin bead pulldown from human plasma, Western blot for FXII

B1: biotinylated amylin (peptide, UniProt P10997 34-70, looked up)
peptide: KCNTATCATQRLANFLVHSSNNFGAILSSTNVGSNTY
modifications: ends and bridges not checked; also: biotinylated (site not given here)
notes: Control aggregating peptide in the pulldown
  binding result: no binding (tested: 500 Nm)

Source: patent US20170363644A1 (ROCKEFELLER UNIVERSITY, published 2017)
